Measurements as given in article PMC9844198.

Molecular target: LD-CLIMP-63-FLAG (soluble CLIMP-63 luminal domain, C-terminal His6-FLAG tag) (human)
Test: native MS; intact protein mass LC-MS under native-like conditions; MAbPac SEC-1 column, 50 mM ammonium acetate pH 7.5, QExactive HF Orbitrap, high-mass-range mode

stoichiometry N: 3
Substance: LD-CLIMP-63-FLAG (soluble CLIMP-63 luminal domain, C-terminal His6-FLAG tag) (domain or fragment)
